Test results published in the Human Domainome abundance scans (Beltran et al. 2025).

B1: Intersectin-1, residues 1156 to 1213; numbered along this chain, Q15811 (parent)
chain: AVCQVIGMYDYTAQNDDELAFNKGQIINVLNKEDPDWWKGEVNGQVGLFPSNYVKLTT

Variants of: B1
Assay: abundance fitness (aPCA) (normalised: wild type 0, dead -1); higher = more abundant; growth selection in yeast, the domain comes from the species named
Settings: Homo sapiens

Abundance fitness: each site, then its substitutions
S51: R -0.053 | T -0.312 | C -0.504 | K -0.09 | N -0.506 | G -0.87 | F -0.942 | A -0.029 | H -0.517 | I -0.751 | V -0.181 | Y -0.927 | P -0.235 | Q -0.452 | E -1.02 | L -0.867 | W -0.877
Q45: W -0.537 | Y -0.411 | R -0.043 | A 0.016 | T -0.169 | L -0.28 | C -0.03 | M -0.023 | F -0.387 | V 0.008 | N 0.109 | K 0.084 | I -0.1 | E -0.149 | S -0.198 | H -0.398 | D 0.075 | P -0.765 | G -0.662
N52: S -0.075 | D -0.079 | M -0.097 | E -0.201 | R 0.022 | V -0.439 | T -0.067 | A -0.183 | L -0.561 | Q -0.147 | I -0.364 | F -0.784 | Y -0.291 | W -0.446 | P -0.544 | C -0.251 | H -0.469 | G -0.253
G44: A -0.56 | Y -0.734 | E -0.911 | L -0.879 | M -0.88 | C -0.682 | R -0.83 | T -0.92 | H -0.658 | W -0.832 | N -0.219 | P -0.806 | D -0.397 | I -0.797 | S -0.677 | Q -0.613 | K -0.981
V46: F -0.463 | A -0.505 | L -0.499 | I -0.006 | R -0.375 | G -0.712 | T -0.337 | N -0.703 | W -0.892 | K -0.306 | S -0.296 | C -0.503 | E -0.412 | Q -0.242 | D -0.668 | H -0.562 | Y -0.34 | M -0.396
F49: V -0.391 | K -0.84 | I -0.184 | L -0.527 | T -0.861 | M -0.725 | P -0.814 | E -0.816 | C -0.871 | Y -0.782 | R -0.862 | S -0.817 | Q -0.661 | D -0.485 | G -0.829 | A -0.743 | N -0.431 | W -0.76
P50: Y -0.932 | W -0.713 | K -0.547 | V -0.929 | I -0.671 | H -0.973 | S -0.954 | C -0.615 | M -0.799 | F -0.459 | Q -1.06 | R -0.323 | E -0.847 | L -0.873 | D -0.507 | T -0.773 | N -0.71
N43: W -1.06 | V -0.794 | Y -0.734 | S -0.294 | R -0.436 | T -0.85 | P -0.736 | Q -0.36
G47: C -0.974 | Q -0.6 | K -0.582 | N -0.651 | W -0.802 | S -0.828 | H -0.943 | I -0.846 | T -0.941 | F -1.01 | Y -0.908 | V -0.796 | D -0.833 | R -0.786 | A -0.755 | P -0.867 | E -0.853 | L -0.881
L48: Q -0.479 | R -0.07 | G -0.544 | D -0.761 | S -0.258 | T -0.184 | N -0.166 | M -0.111 | F 0.146 | W 0.028 | E -0.784 | H -0.335 | K -0.055 | P -0.886 | Y -0.056 | I 0.063 | V -0.068
